Literature values as cited in US20250302913A1, “LACRIPEP PROMOTES NEUROREGENERATION AND MAINTAINS EPITHELIAL PROGENITOR CELL IDENTITY” (The Regents of The University of California, priority 2022, published 2025).

T1: syndecan-1 (SDC1) (Homo sapiens, UniProt P18827)
T1 sequence (P18827 23-310): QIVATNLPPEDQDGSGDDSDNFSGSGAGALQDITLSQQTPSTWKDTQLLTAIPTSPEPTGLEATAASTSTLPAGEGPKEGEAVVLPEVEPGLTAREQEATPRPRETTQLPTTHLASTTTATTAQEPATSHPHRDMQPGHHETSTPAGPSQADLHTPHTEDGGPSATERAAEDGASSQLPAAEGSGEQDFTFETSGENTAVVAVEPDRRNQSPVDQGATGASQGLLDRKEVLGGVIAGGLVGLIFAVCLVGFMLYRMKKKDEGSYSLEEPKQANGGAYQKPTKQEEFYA


Assays:
rabbit corneas = settings: after refractive surgery; cited from earlier work
human patients = settings: controlled clinical studies; cited from earlier work
syndecan-1 (SDC1) = molecular target: T1, syndecan-1 (SDC1); settings: cited from earlier work
healthy rabbit model = settings: cited from earlier work
corneal epithelial cell = settings: in vitro; cited from earlier work

Molecule | reinnervation of corneas (rabbit corneas) | corneal sensitivity or visual acuity versus vehicle (artificial tears) (human patients) | binding and activation of syndecan-1 (syndecan-1 (SDC1)) | basal tearing (healthy rabbit model) | corneal epithelial cell proliferation (corneal epithelial cell)
cenegermin: recombinant nerve growth factor | stimulated the reinnervation of rabbit corneas | failed to show significant benefit over vehicle | – | – | –
Lacritin: endogenous glycoprotein initially identified in tears (protein, listed as Homo sapiens, Description of sequence: Lacritin, endogenous glycoprotein initially identified in tears) MKFTTLLFLAAVAGALVYAEDASSDSTGADPAQEAGTSKPNEEISGPAEPASPPETTTTAQETSAAAVQGTAKVTSSRQELNPLKSIVEKSILLTEQALAKAGKGMHGGVPGGKQFIENGSEFAQKLLKKFSLLKPWA | – | – | bind and activate | promote basal tearing | promote corneal epithelial cell proliferation
